How the values were obtained:
[1] = target: T1, human GUCY2C (guanylyl cyclase C) (human, UniProt P25092 24-1073); assay: flow cytometry on CHO-huGUCY2C cells
T1 construct: also called huGUCY2C; GC-C
Protocol: Three (3) cell lines, Chinese hamster ovary (CHO) cell line, CHO transfected with cyno GUCY2C, and CHO transfected with human GUCY2C, were incubated with a titrating dose of GUCY2C_mAb for 60 min at 37° C., washed twice, then incubated with AF647 labeled anti human secondary for 30 minutes at 4° C. Cells were washed twice again, resuspended and acquired in a flow cytometer. Specific antibody binding was assessed in the RL1H channel for each cell line. Data presented as signal/background where background is secondary only.

[2] = target: T1, human GUCY2C (guanylyl cyclase C); assay: flow cytometry on T84 cells
Protocol: One hour cell binding studies by flow cytometry were carried out at physiologically relevant temperature (37° C.) on GUCY2CxCD3 bispecific antibodies (GUCY2CxCD3 biAb-1 and GUCY2CxCD3_biAb-2), known reference GUCY2CxCD3 bispecific antibody (biAb), and Null×CD3 control molecules. The goal was to characterize and quantify specific, cell binding for GUCY2CxCD3_biAb-1 and 2. […] Maximum binding of GUCY2CxCD3 biAb-1 and 2 was higher than reference biAb.

[3] = target: T2, human CD3 (human, UniProt P07766 23-207); assay: flow cytometry on primary T cells
T2 construct: also called CD3 epsilon; CD3 on primary human T cells
T2 sequence (P07766 23-207 limits assumed): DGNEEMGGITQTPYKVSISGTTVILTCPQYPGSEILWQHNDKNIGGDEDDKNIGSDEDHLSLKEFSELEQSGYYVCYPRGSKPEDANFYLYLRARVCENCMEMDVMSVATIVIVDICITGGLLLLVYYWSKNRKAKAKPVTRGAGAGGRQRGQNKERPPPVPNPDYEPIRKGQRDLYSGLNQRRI

[4] = target: T1, human GUCY2C (guanylyl cyclase C); assay: cell-based or functional assay
[5] = target: T2, human CD3; assay: flow cytometry based Intellicyt assay on human pan T cells, MFI, 4PL fit; lower end of the printed range 108-112 nM
Protocol: The affinity of CD3_spFv-1 to T cells was measured by flow cytometry based Intellicyt assay. Briefly, pan T cells were isolated from PBMC from healthy donors. Cells were incubated with titrating amounts test molecules for 1 hour, then washed. […] Cells were then washed and resuspended in 0.10% pluronic acid containing Sytox Green, then immediately analyzed in a flow cytometer. Median fluorescent intensity (MFI) was recorded (on RL1-A). The log 10 of the molecule concentration was plotted against the MFI. Best fit curves were evaluated using a 4PL algorithm (log(agonist) vs. response—Variable slope) in GraphPad Prism 9.0.

[6] = target: T3, cynomolgus monkey CD3 (cynomolgus monkey, UniProt Q95LI5 22-198); assay: not described at this place; the sentence refers to 'example 2'
T3 construct: whole, on cells; also called cynomolgus CD3
T3 sequence (Q95LI5 22-198): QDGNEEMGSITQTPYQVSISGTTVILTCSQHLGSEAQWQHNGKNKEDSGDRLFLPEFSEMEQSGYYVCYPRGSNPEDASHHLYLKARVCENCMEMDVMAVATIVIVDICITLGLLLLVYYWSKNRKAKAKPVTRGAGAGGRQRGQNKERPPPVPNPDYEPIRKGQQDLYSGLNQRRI

T1 sequence (P25092 other isoform, or with tags, fused parts or gaps limits assumed): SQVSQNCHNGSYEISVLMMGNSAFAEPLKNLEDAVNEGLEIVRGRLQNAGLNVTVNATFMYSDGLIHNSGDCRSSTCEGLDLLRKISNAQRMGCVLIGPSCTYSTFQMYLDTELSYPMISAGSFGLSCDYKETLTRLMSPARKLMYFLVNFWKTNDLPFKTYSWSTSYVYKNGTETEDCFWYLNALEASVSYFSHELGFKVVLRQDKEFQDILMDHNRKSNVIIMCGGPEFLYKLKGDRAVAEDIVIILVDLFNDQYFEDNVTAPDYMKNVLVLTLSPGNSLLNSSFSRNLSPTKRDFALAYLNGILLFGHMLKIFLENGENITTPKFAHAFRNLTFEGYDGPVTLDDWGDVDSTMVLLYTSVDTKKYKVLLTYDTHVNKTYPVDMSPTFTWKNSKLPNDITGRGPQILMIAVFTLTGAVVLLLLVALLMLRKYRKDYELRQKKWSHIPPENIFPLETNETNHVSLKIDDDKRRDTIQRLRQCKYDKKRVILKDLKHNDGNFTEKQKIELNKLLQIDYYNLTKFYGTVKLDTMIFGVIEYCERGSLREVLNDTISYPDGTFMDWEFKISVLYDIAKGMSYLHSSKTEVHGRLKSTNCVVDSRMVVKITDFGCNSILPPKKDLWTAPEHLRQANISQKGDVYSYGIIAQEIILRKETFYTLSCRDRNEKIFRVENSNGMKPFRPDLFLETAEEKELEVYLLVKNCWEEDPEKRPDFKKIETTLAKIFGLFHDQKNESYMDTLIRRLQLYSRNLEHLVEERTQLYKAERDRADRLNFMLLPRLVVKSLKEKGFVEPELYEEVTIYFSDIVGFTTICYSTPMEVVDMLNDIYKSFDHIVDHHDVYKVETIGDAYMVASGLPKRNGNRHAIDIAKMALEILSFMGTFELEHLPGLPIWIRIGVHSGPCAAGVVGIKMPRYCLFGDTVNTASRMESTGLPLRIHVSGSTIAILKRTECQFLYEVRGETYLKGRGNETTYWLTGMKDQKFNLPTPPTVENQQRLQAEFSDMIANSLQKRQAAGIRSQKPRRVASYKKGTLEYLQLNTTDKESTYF

B1: GUCY2C_mAb (antibody, V domains shown)
VH: QVQLQESGPGLVKPSETLSLTCTVSGASISHYYWSWIRRPAGKGLEWIGRIYTSGSTNYNPSLKSRVTVSVDTSKNQFSLKLSSVTAADTAVYYCARDRYTGYFDLWGRGTLVTVSS
VL: not shown
notes: From Ablexis Kappa mice, so a kappa light chain; also called GUCYC2_mAb
- EC50 [1]: 4.6 nM

B2: GUCY2CxCD3_biAb-1 (bispecific antibody, human IgG1, kappa, L234A L235A)
heavy: QVQLQESGPGLVKPSETLSLTCTVSGASISHYYWSWIRRPAGKGLEWIGRIYTSGSTNYNPSLKSRVTVSVDTSKNQFSLKLSSVTAADTAVYYCARDRYTGYFDLWGRGTLVTVSSASTKGPSVFPLAPSSKSTSGGTAALGCLVKDYFPEPVTVSWNSGALTSGVHTFPAVLQSSGLYSLSSVVTVPSSSLGTQTYICNVNHKPSNTKVDKKVEPKSCDKTHTCPPCPAPEAAGGPSVFLFPPKPKDTLMISRTPEVTCVVVSVSHEDPEVKFNWYVDGVEVHNAKTKPREEQYNSTYRVVSVLTVLHQDWLNGKEYKCKVSNKALPAPIEKTISKAKGQPREPQVYTLPPSREEMTKNQVSLSCAVKGFYPSDIAVEWESNGQPENNYKTTPPVLDSDGSFFLVSKLTVDKSRWQQGNVFSCSVMHEALHNRFTQKSLSLSPGK
light: not shown
chain: EIVLTQSPATLSASPGERVTLSCSASSSVSYMNWYQQKPGCAPRRWIYDSSKLASGVPARFSGSGSGRDYTLTISSLEPEDFAVYYCQQWSRNPPTFGGGTKVEIKGGGSGGSGGCPPCGGSGGQVQLVQSGAEVKKPGSSVKVSCKASGYTFTRSTMHWVKQAPGQGLEWIGYINPSSAYTNYNQKFQGRVTLTADKSTSTAYMELSSLRSEDTAVYYCASPQVHYDYAGFPYWGCGTLVTVSSEPKSSDKTHTCPPCPAPEAAGGPSVFLFPPKPKDTLMISRTPEVTCVVVSVSHEDPEVKFNWYVDGVEVHNAKTKPREEQYNSTYRVVSVLTVLHQDWLNGKEYKCKVSNKALPAPIEKTISKAKGQPREPQVYTLPPSREEMTKNQVSLWCLVKGFYPSDIAVEWESNGQPENNYKTTPPVLDSDGSFFLYSKLTVDKSRWQQGNVFSCSVMHEALHNHYTQKSLSLSPGK
notes: HC1/LC1 form the GUCY2C Fab arm (IgG1, L234A/L235A/D265S, hole T366S/L368A/Y407V); HC2 is CD3_spFv-1 (VL2-linker-VH2) fused to IgG1 Fc (L234A/L235A/D265S, knob T366W); also called GUCY2CxCD3 bisp-Ab1; GUCY2C-CD3-bisp-Abl
- EC50 [2]: 12 nM
- EC50 [3]: 108 nM
- Tumor killing EC50 (nM), HT-55 [4]: 0.8 nM
- Tumor killing EC50 (nM), LS1034 [4]: 0.04 nM

B3: CD3_spFv-1 (scFv)
scFv: EIVLTQSPATLSASPGERVTLSCSASSSVSYMNWYQQKPGCAPRRWIYDSSKLASGVPARFSGSGSGRDYTLTISSLEPEDFAVYYCQQWSRNPPTFGGGTKVEIKGGGSGGSGGCPPCGGSGGQVQLVQSGAEVKKPGSSVKVSCKASGYTFTRSTMHWVKQAPGQGLEWIGYINPSSAYTNYNQKFQGRVTLTADKSTSTAYMELSSLRSEDTAVYYCASPQVHYDYAGFPYWGCGTLVTVSS
notes: also called CD3 arm of GUCY2CxCD3_biAb-1; anti-CD3 spFv
- EC50 [5]: 108 to 112 nM
- binding result [6]: no binding
